Test results taken from patent US9073973B2, “Dye conjugates of template-fixed peptidomimetics” (Polyphor LTD., priority 2005, dated 2015).
Numbered stars: 1 amine (or outer) side, 2 acyl side, 3 side chain; on linkers, the order of the positions; unused ones are H or OH. Bridge positions count the residues as written; N and C are the ends. Square brackets hold non-standard residues; d marks the D form. Primed or numbered codes have the meaning given here. Side chains are listed from the residue outwards. Peptide text beside a SMILES is read from it. * marks the point of attachment. FITC′ = 5(6)-fluoresceinthioureido on Lys N-epsilon (Lys(FITC)); Pro(trans-4-NH2) = O=C([C@@H]1C[C@@H](N[*:3])CN1[*:1])[*:2]; 5FAM = O=C1OC2(c3ccc(O)cc3Oc3cc(O)ccc32)c2ccc(C(=O)*)cc21; Dansyl = CN(C)c1cccc2c(S(=O)(=O)*)cccc12; 2Nal = N[C@@H](Cc1ccc2ccccc2c1)C(=O)O; Cit = NC(=O)NCCC[C@H](N)C(=O)O; Ahx = NCCCCCC(=O)O

B1: Example 1 (peptide)
peptide: cyclo(YR[Cit]CRG[dP]RRWCY[Cit]K(Dansyl))
modifications: disulfide 4-11; not fully specified (C-terminus)
B2: Example 11 (peptide)
peptide: cyclo(HHQCSA[dP]FRYCYQK(FITC′))
modifications: disulfide 4-11; not fully specified (C-terminus)
B3: Example 12 (peptide)
peptide: cyclo(LHTCRA[dP]RRYCYQK(FITC′))
modifications: disulfide 4-11; not fully specified (C-terminus)
B4: Example 13 (peptide)
peptide: cyclo(HHYCRA[dP]FRFCYQK(FITC′))
modifications: disulfide 4-11; not fully specified (C-terminus)
B5: Example 14 (peptide)
peptide: cyclo(SHYCRA[dP]FRFCYQK(FITC′))
modifications: disulfide 4-11; not fully specified (C-terminus)
B6: Example 15 (peptide)
peptide: cyclo(YRTCRG[dP]RRYCYQK(FITC′))
modifications: disulfide 4-11; not fully specified (C-terminus)
B7: Example 16 (peptide)
peptide: cyclo(YRTCRA[dP]RRYCYQK(FITC′))
modifications: disulfide 4-11; not fully specified (C-terminus)
B8: Example 17 (peptide)
peptide: cyclo(YRYCRA[dP]FRFCYQK(FITC′))
modifications: disulfide 4-11; not fully specified (C-terminus)
B9: Example 18 (peptide)
peptide: cyclo(YHYCSA[dP]FRYCYQK(FITC′))
modifications: disulfide 4-11; not fully specified (C-terminus)
B10: Example 3 (peptide)
peptide: cyclo(KR[Cit]CRG[dP]RRWCY[Cit]Q)
modifications: disulfide 4-11; not fully specified (residue 1, C-terminus)
B11: Example 4 (peptide)
peptide: cyclo(YR[Cit]CRG[dP]RRWCY[Cit]Q)
modifications: disulfide 4-11; not fully specified (C-terminus)
notes: the dye sits on the template; also called Ex. 4
B12: Example 5 (peptide)
peptide: cyclo(YRKCRG[dP]RRWCY[Cit]Q)
modifications: disulfide 4-11; not fully specified (residue 3, C-terminus)
B13: Example 6 (peptide)
peptide: cyclo(YRTCRG[dP]RR[2Nal]CY[Cit]K)
modifications: disulfide 4-11; not fully specified (residue 14, C-terminus)
B14: Example 7 (peptide)
peptide: cyclo(YRTCRG[dP]RR[2Nal]CY[Cit]K(FITC′))
modifications: disulfide 4-11; not fully specified (C-terminus)
B15: Example 8 (peptide)
peptide: cyclo(YR[Cit]CRG[dP]RRWCYKQ)
modifications: disulfide 4-11; not fully specified (residue 13, C-terminus)
B16: Example 9 (peptide)
peptide: cyclo(YK[Cit]CRG[dP]RRWCY[Cit]Q)
modifications: disulfide 4-11; not fully specified (residue 2, C-terminus)

Experiments:
[1] = test system: human red blood cells (hRBC); test: Hemolysis; format: cell-based; settings: percent hemolysis; 100 μM peptide, 20% v/v hRBC, 1 hour at 37° C.
Protocol: The peptides were tested for their hemolytic activity against human red blood cells (hRBC). Fresh hRBC were washed three times with phosphate buffered saline (PBS) by centrifugation for 10 min at 2000×g. Peptides at a concentration of 100 μM were incubated with 20% v/v hRBC for 1 hour at 37° C. The final erythrocyte concentration was approximately 0.9×10^9 cells per ml. A value of 0% resp. 100% cell lysis was determined by incubation of the hRBC in the presence of PBS alone and respectively 0.1% Triton X-100 in H2O. The samples were centrifuged and the supernatant was 20-fold diluted in PBS buffer and the optical density (OD) of the sample at […] was measured. The 100% lysis value (0D540H20) gave an OD540 of approximately 1.3-1.8. Percent hemolysis was calculated as follows: (0D540peptide/OD540H20)×100%.

[2] = test system: HELA cells; test: Cytotoxicity assay (MTT reduction); format: cell-based; settings: 48 hours incubation, peptide 12.5, 25 and 50 μM
Protocol: The cytotoxicity of the peptides to HELA cells (Acc57) and COS-7 cells (CRL-1651) was determined using the MTT reduction assay [see ref. 5 and 6, below]. Briefly the method was as follows: HELA cells and COS-7 cells were seeded at 7.0·10^3 and, respectively, 4.5·10^3 cells per well and grown in 96-well microtiter plates for 24 hours at 37° C. at 5% CO2. At this point, time zero (Tz) was determined by MTT reduction (see below). The supernatant of the remaining wells was discarded, and fresh medium and the peptides in serial dilutions of 12.5, 25 and 50 μM were pipetted into the wells. Each peptide concentration was assayed in triplicate. Incubation of the cells was continued for 48 hours at 37° C. at 5% CO2. Wells were then washed once with PBS, and subsequently 100 μl MTT reagent (0.5 mg/mL in medium RPMI1640 and, respectively, DMEM) was added to the wells. This was incubated at 37° C. for 2 hours and subsequently the medium was aspirated and 100 μl isopropanol was added to each well. The absorbance at 595 nm of the solubilized product was measured (OD595peptide). For each concentration averages were calculated from triplicates. The percentage of growth was calculated as follows: (OD595peptide-OD595Tz-OD595Empty well)/(OD595Tz-OD595Empty well)×100% and was plotted for each peptide concentration. […]

[3] = test system: untransfected 300-19 cells; test: FACS analysis, untransfected cells (non-specific binding); set-up: species or system mouse; settings: FIG. 1; FACS at 530 nm, 10,000 cells; background/non-specific binding
Protocol: (§1) CXCR4 expressing cells (5×10^6/ml) [see references 1, 2 and 3, below] were incubated for 1 hour at 4° C. in a buffer containing HBSS+1% BSA with or without peptidomimetic-dye conjugates at the appropriate concentrations. After this incubation, the cells were washed twice in the same buffer and resuspended at 4×10^6/ml in PBS and kept on ice until measurements were made. All measurements were made on a BD FACSCalibur™ instrument [see ref 4 below] at a wavelength of 530 nm and a total of 10,000 events were counted for each condition. Unlabeled CXCR4 cells and untransfected 300-19 cells were used to establish an appropriate gate for scoring positive and negative events. Four-parameter curve fitting was made from plots of % gated cells vs. concentration of fluorescent compound using Grafit (Erithacus Software).
(§2) The dotted line plot is the histogram obtained from the CXCR4 expressing cells incubated with the compound. The shift to the right on the intensity scale indicates a ˜5-fold increase in fluorescence with >80% of the cells being positive for peptidomimetic-dye conjugates.

[4] = biological target: T1, CXCR4 expressing cells (Homo sapiens, UniProt P61073); test: FACS analysis, labeling of CXCR4 expressing cells; format: binding; settings: FIG. 1; FACS fluorescence intensity at 530 nm, 10,000 cells
T1 construct: expressed in transfected cells; host or cells: 300-19 cells (mouse pre-B), CXCR4 transfected
T1 sequence (P61073 whole entry): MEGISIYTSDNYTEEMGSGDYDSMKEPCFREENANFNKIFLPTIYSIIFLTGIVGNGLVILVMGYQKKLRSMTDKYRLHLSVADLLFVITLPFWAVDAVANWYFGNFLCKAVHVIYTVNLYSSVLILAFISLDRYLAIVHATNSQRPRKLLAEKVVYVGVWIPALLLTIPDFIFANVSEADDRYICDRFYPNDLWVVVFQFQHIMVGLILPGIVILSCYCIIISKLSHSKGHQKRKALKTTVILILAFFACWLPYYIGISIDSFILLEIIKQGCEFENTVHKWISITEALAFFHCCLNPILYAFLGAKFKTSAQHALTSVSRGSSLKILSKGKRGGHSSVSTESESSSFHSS
Protocol: as §1, §2

[5] = biological target: T2, human CXCR4 (human, UniProt P61073 1-352); test: cell-based or functional assay
T2 sequence (P61073 whole entry): as above

[6] = biological target: T2, human CXCR4; test: FACS at 530 nm, CXCR4 expressing cells against untransfected cells incubated with the dye conjugate
Protocol: as §1, with “(5 ×10^6/ml)” for “(5×10^6/ml)”, “4 ×10^6/ml” for “4×10^6/ml”
The dotted line plot is the histogram obtained from the CXCR4 expressing cells incubated with the compound. The shift to the right on the intensity scale indicates a ~5-fold increase in fluorescence with >80% of the cells being positive for peptidomimetic-dye conjugates.

Molecule | IC50 (nM) Ca2+ assay (calcium mobilization induced by 10 nM SDF-1) [5] | other results
CN(C)c1cccc2c(S(=O)(=O)NCCCC[C@@H]3NC(=O)[C@H](CCCNC(N)=O)NC(=O)[C@H](Cc4ccc(O)cc4)NC(=O)[C@@H]4CSSC[C@H](NC(=O)[C@H](CCCNC(N)=O)NC(=O)[C@H](CCCNC(=N)N)NC(=O)[C@H](Cc5ccc(O)cc5)NC(=O)[C@@H]5CCCN5C(=O)[C@H]5CCCN5C3=O)C(=O)N[C@@H](CCCNC(=N)N)C(=O)NCC(=O)N3CCC[C@@H]3C(=O)N[C@@H](CCCNC(=N)N)C(=O)N[C@@H](CCCNC(=N)N)C(=O)N[C@@H](Cc3c[nH]c5ccccc35)C(=O)N4)cccc12 [Example 1] (cyclo(YR[Cit]CRG[dP]RRWCY[Cit]K(Dansyl)[dP]P); disulfide 4-11) | – | Hemolysis at 100 μM [1]: 0; Cytotoxicity LC50/GI50 Hela cells [2]: 31
N=C(N)NCCC[C@@H]1NC(=O)[C@@H]2CSSC[C@H](NC(=O)[C@H](Cc3c[nH]c4ccccc34)NC(=O)[C@H](CCCNC(=N)N)NC(=O)[C@H](CCCNC(=N)N)NC(=O)[C@H]3CCCN3C(=O)CNC1=O)C(=O)N[C@@H](Cc1ccc(O)cc1)C(=O)N[C@@H](CCCNC(N)=O)C(=O)N[C@@H](CCC(N)=O)C(=O)N1CCC[C@@H]1C(=O)N1C[C@H](NC(=O)CCCCCNC(=O)c3ccc4c(c3)C(=O)OC43c4ccc(O)cc4Oc4cc(O)ccc43)C[C@H]1C(=O)N[C@@H](Cc1ccc(O)cc1)C(=O)N[C@@H](CCCNC(=N)N)C(=O)N[C@@H](CCCNC(N)=O)C(=O)N2 [Example 4] (cyclo(CRG[dP]RRWCY[Cit]Q[dP][Pro(trans-4-NH2)]([Ahx-5FAM])YR[Cit]); disulfide 1-8) | – | cells binding compound (untransfected cells) [3]: 0.7%; increase in fluorescence (CXCR4 expressing vs untransfected cells) [4]: ~5 fold
B1 | 122 nM | –
B2 | 27.5 nM | –
B3 | 6.9 nM | –
B4 | 29 nM | –
B5 | 30.4 nM | –
B6 | 6 nM | –
B7 | 4.2 nM | –
B8 | 21.8 nM | –
B9 | > 500 nM | –
B10 | 16.4 nM | –
B11 | 13.4 nM | fold increase in fluorescence [6]: ~5 fold
B12 | 4.9 nM | –
B13 | 37.4 nM | –
B14 | 0.9 nM | –
B15 | 9.7 nM | –
B16 | 500 nM | –
